The test deals with T1, Recombinant human IZUMO1 ectodomain (residues 22-254) (human, UniProt Q8IYV9 22-254).
T1 construct: IZUMO1, human, UniProt Q8IYV9, residues 22-254 (ectodomain); The construct has an N-terminal BiP signal peptide for secretion and a thrombin cleavage site before the C-terminal 10xHis tag; In the bead assay the tag was probably cleaved, since the beads capture His tags (surmise); also called rIZUMO1; IZUMO1 (residues 22-254); source: Drosophila S2 cells, stably transfected, secreted; purified …
The experiment in a line: SPR; Nicoya Alto digital SPR, single-cycle kinetics, 25 °C; biotinylated JUNO (800 nM) immobilised as bait on streptavidin-coated carboxyl PEG cartridge; IZUMO1 as analyte at 1000, 333, 111, 37 and 12.3 nM; PBS pH 7.4, 0.05% Tween-20; technical triplicate. Particulars: both partners purified.

Drawing on paper PMC12961186, “JUNO-coated beads as a functional assay to capture and characterize fertilization-competent human sperm” (Human Reproduction Open, 2026), this text covers Kd, koff and kon for 1 molecule.

T1 sequence (Q8IYV9 22-254): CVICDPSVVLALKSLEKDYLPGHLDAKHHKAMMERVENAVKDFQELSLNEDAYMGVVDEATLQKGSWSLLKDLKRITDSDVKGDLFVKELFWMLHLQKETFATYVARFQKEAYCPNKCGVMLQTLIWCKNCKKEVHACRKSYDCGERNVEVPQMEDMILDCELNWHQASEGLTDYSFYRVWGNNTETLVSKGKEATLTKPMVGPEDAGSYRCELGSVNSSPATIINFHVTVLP

B1: Human JUNO ectodomain (residues 20-228), biotinylated (domain or fragment, UniProt A6ND01 20-228, looked up)
chain: GDELLNICMNAKHHKRVPSPEDKLYEECIPWKDNACCTLTTSWEAHLDVSPLYNFSLFHCGLLMPGCRKHFIQAICFYECSPNLGPWIQPVGSLGWEVAPSGQGERVVNVPLCQEDCEEWWEDCRMSYTCKSNWRGGWDWSQGKNRCPKGAQCLPFSHYFPTPADLCEKTWSNSFKASPERRNSGRCLQKWFEPAQGNPNVAVARLFAS
modifications: biotin (EZ-link Sulfo-NHS-LC-Biotin, 1:1 molar ratio); glycosylated
notes: JUNO, human, UniProt A6ND01, residues 20-228 (ectodomain); The construct has an N-terminal BiP signal peptide for secretion and a thrombin cleavage site before the C-terminal 10xHis tag; also called recombinant JUNO; rhJUNO; source: Drosophila S2 cells, stably transfected, secreted; purified (Ni-NTA, SEC)
Regarding B1, the Kd was determined as 37.6 nM, the koff was 0.00387 s⁻¹ and the kon was determined as 103000 M⁻¹ s⁻¹.
